Reference: patent publication US20130296252A1 (University of Texas, published 2013)
Bridge positions count the residues as written; N and C are the ends. Ends that are not written are not given here.

T1: human MUC18 on human melanoma cell lines (human, UniProt P43121 24-646)
T1 construct: whole, on cells; also called MCAM; CD146
T1 sequence (looked up): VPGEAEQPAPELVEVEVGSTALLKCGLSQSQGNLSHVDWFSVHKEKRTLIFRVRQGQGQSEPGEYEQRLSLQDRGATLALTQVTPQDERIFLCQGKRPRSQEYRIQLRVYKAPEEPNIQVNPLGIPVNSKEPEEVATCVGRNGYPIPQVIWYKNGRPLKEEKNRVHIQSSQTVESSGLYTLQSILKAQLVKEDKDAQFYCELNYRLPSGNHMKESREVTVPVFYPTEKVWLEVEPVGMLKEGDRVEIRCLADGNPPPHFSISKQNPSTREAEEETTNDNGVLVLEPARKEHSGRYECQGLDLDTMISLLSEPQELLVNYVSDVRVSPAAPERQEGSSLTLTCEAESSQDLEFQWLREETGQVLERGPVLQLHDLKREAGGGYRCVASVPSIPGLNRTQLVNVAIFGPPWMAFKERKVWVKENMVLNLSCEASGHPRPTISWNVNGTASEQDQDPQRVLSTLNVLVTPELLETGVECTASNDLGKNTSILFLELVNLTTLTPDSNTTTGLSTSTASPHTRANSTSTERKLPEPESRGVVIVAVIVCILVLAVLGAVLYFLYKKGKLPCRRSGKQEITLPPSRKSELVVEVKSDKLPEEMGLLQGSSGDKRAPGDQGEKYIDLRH

B1: CLFMRLAWC-phage (phage displaying the cyclic peptide CLFMRLAWC) (peptide)
peptide: CLFMRLAWC
modifications: disulfide 1-9 (inferred); also: displayed on phage
notes: also called phage clone displaying the peptide motif Arg-Met-Phe-Leu
B2: H111-S120 phage (phage clone displaying the mouse MUC18-derived peptide HDERMFLCKS, residues H111-S120 of MUC18) (peptide)
peptide: HDERMFLCKS
notes: also called MUC18-derived phage; MUC18-derived (H111-S120) phage
B3: H111-S120 phage with Arg114 mutated (alanine scanning) (peptide)
peptide: HDEAMFLCKS
notes: Numbering counts on mouse MUC18
B4: H111-S120 phage with Ser120 mutated (alanine scanning) (peptide)
peptide: HDERMFLCKA
notes: as for B3
B5: H111-S120 phage with Lys119 mutated (alanine scanning) (peptide)
peptide: HDERMFLCAS
notes: as for B3
B6: H111-S120 phage with Cys118 mutated (alanine scanning) (peptide)
peptide: HDERMFLAKS
notes: as for B3
B7: mouse MUC18 (melanoma cell adhesion molecule) (receptor, UniProt Q8R2Y2 24-648, looked up)
chain: VPGEEKQPVPTPDLVEAEVGSTALLKCGPSRASGNFSQVDWFLIHKERQILIFRVHQGKGQREPGEYEHRLSLQDSVATLALSHVTPHDERMFLCKSKRPRLQDHYVELQVFKAPEEPTIQANVVGIHVDRQELREVATCVGRNGYPIPQVLWYKNSLPLQEEENRVHIQSSQIVESSGLYTLKSVLSARLVKEDKDAQFYCELSYRLPSGNHMKESKEVTVPVFYPAEKVWVEVEPVGLLKEGDHVTIRCLTDGNPQPHFTINKKDPSTGEMEEESTDENGLLSLEPAEKHHSGLYQCQSLDLETTITLSSDPLELLVNYVSDVQVNPTAPEVQEGESLTLTCEAESNQDLEFEWLRDKTGQLLGKGPVLQLNNVRREAGGRYLCMASVPRVPGLNRTQLVSVGIFGSPWMALKERKVWVQENAVLNLSCEASGHPQPTISWNVNGSATEWNPDPQTVVSTLNVLVTPELLETGAECTASNSLGSNTTTIVLKLVTLTTLIPDSSQTTGLSTLTVSPHTRANSTSTEKKLPQPESKGVVIVAVIVCTLVLAVLGAALYFFYKKGKLPCGRSGKQEITLPPTRKSEFVVEVKSDKLPEEMALLQGSNGDKRAPGDQGEKYIDLRH
notes: whole, on cells; Present on B16 melanoma cells before and after co-culture with B-1 lymphocytes; In the immunocapture assay it was captured from cell membrane extracts by anti-MUC18 antibody; In Western blot and co-IP it came from cell membrane extracts; also called MCAM; native mouse MUC18

Key:
[1] = target: B7; test: phage binding (relative TU) to B16 melanoma cells post co-culture with B-1 lymphocytes
[2] = target: B7; test: phage binding (relative TU) to B16 melanoma cells post versus pre co-culture with B-1 lymphocytes
[3] = target: T1, human MUC18 on human melanoma cell lines; test: phage binding to a panel of 8 human melanoma cell lines
[4] = target: B7; test: phage binding to B16 melanoma cells post versus pre co-culture with B-1 lymphocytes
[5] = target: B7; test: alanine-scanning phage binding to melanoma cells
[6] = target: the molecule itself; test: conclusion drawn from phage binding, immunocapture, antibody inhibition and shRNA experiments

Binder: B1
- fold increase in phage binding relative to control insertless phage [1]: ~20 fold
- fold increase in phage binding relative to melanoma cells without co-culture with B-1 lymphocytes [2]: ~12 fold

Binder: B2
- binding result [3]: binds
- fold increase in phage binding relative to baseline binding to melanoma cells pre co-culture with B-1 lymphocytes [4]: 2.5 fold

Binder: B3
- binding result [5]: no binding

Binder: B4
- binding result [5]: no binding

Binder: B5
- binding result [5]: no binding

Binder: B6
- binding result [5]: no binding

Binder: B7
- binding result [6]: binds
